Where two headings read alike, the source gives them in different places.
T1: Recombinant cynomolgus monkey TSLP-his (cynomolgus monkey)
T1 construct: Prepared in-house; Amine-coupled to CM5 chip in SPR, coated on plates in the indirect ELISA; also called cynomolgus TSLP; cynomolgus TSLP-his protein
T1 chain: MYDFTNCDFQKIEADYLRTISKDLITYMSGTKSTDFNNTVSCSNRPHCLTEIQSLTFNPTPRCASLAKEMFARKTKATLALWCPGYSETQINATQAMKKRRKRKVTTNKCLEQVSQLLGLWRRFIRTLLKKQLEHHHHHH

B1: mouse 1C5F12E9 (antibody, V domains shown)
VH: QVQLQQPGTELVKPGASVKMSCKASGYTFTTYWMHWVKQRPGQGLEWIGVIDPSDSDTTYNQKFKGKATLTVDTSSSTAYMQLSSLTSEDSAVYYCTRSLDGYYDYWGQGTTLTVSS
VL: DIQMTQSPASLSASVGETVTITCRPTENIYSYLAWYQQKQGKSPHLLVYFARTLAEGVPSRFSGSGSGTQFSLKINSLQPEDFGIYYCQHHYGTPWTFGGGTKLEIK
notes: also called mouse anti-TSLP 1C5F12E9 antibody
B2: Mouse D1C2H1H1 (antibody, V domains shown)
VH: QVTLKESGPGILQPSQTLSLTCSFSGFSLSTYGMGIGWIRLPSGKGLEWLASIWWDDNRYFNAALKSRLTISKDASKNQVFLKIASVDTADTATYYCARIEDGYYSYHSYWGQGTLVTVSA
VL: DIVLTQSPASLAVSLGQRATISCKASQSVDFDGDSYMNWFQQKPGQPPKLLIYAASNLVSGIPARFSGSGSGTDFTLNIHPVEEEDAATYYCQQIDEDPYTFGGGTKLEIE
notes: Mouse hybridoma mAb
B3: Tezepelumab (antibody, human IgG2, lambda, V domains shown)
VH: QMQLVESGGGVVQPGRSLRLSCAASGFTFRTYGMHWVRQAPGKGLEWVAVIWYDGSNKHYADSVKGRFTITRDNSKNTLNLQMNSLRAEDTAVYYCARAPQWELVHEAFDIWGQGTMVTVSS
VL: SYVLTQPPSVSVAPGQTARITCGGNNLGSKSVHWYQQKPGQAPVLVVYDDSDRPSWIPERFSGSNSGNTATLTISRGEAGDEADYYCQVWDSSSDHVVFGGGTKLTVLG
notes: also called TSLP-BM; benchmark
B4: Mouse D1D8H9F7 (antibody, V domains shown)
VH: QVQLQQSGADLVRPGSSVKISCKTSGFAFSSYYMNWVKQRPGQGLEWIGQIYPGDGETNYNGKFKDKATLTADKSSSTVYMQLSSLTSEDSAVYFCARAGYSDYVYAMDYWGQGTSVTVSS
VL: EIVLTQSPALMAASPGEKVTIICSVSSSITSSNLHWYQQKSETSPKPWIYGTSNLASGVPVRFSGSGSGTSYSLTISSMEAEDAATYYCQQWSSFPLTFGSGTKLEIK
notes: Mouse hybridoma mAb
B5: Chimeric 1C5F12E9 (antibody, human IgG1, kappa, V domains shown)
VH: B1 VH
VL: DIQMTQSPASLSASVGETVTITCRPTENIYSYLAWYQQKQGKSPHLLVYFARTLAEGVPSRFSGSGSGTQFSLKINSLQPEDFGIYYCQHHYGTPWTFGGGTKLEIKR
notes: Human IgG1/kappa chimera expressed in 293F cells; also called chimeric 1C5F12E9 antibody

Tests used:
[1] = molecular target: T2, Recombinant human TSLP-his (human, UniProt Q969D9 29-159); assay: SPR, BIAcore; protocol of Example 2
T2 construct: Prepared in-house; Amine-coupled to CM5 chip in SPR, loaded on APS sensors in Octet, biotin-labeled in the capture ELISA, unlabeled in the cell functional assays; also called human TSLP-his protein

[2] = molecular target: T1, Recombinant cynomolgus monkey TSLP-his; assay: SPR, BIAcore; protocol of Example 2
[3] = molecular target: T1, Recombinant cynomolgus monkey TSLP-his; assay: indirect ELISA on coated cynomolgus TSLP-his
[4] = molecular target: T1, Recombinant cynomolgus monkey TSLP-his; assay: indirect ELISA on coated cynomolgus TSLP-his
[5] = molecular target: T2, Recombinant human TSLP-his; assay: BLI, Octet; TSLP-his loaded on APS biosensor, antibody in solution; 1:1 Langmuir fit
[6] = molecular target: T2, Recombinant human TSLP-his; assay: SPR, Biacore T200; TSLP-his amine-coupled to CM5 chip, antibody as analyte; 1:1 Langmuir fit
[7] = molecular target: T3, human TSLP-Fc (human, biotin-labeled); assay: competitive ELISA: antibody pre-mixed with biotin-labeled human TSLP-Fc; blocked binding to coated Tezepelumab
T3 construct: Prepared in-house; also called biotin-labeled human TSLP-Fc; TSLP-Fc-biotin

[8] = molecular target: T3, human TSLP-Fc; assay: as above; remark: listed apart in the source
[9] = molecular target: T3, human TSLP-Fc; assay: as above; remark: listed apart in the source
[10] = molecular target: T2, Recombinant human TSLP-his; assay: capture ELISA: antibody captured on anti-IgG Fc coat, biotin-labeled human TSLP-his detected with streptavidin-HRP
[11] = molecular target: T2, Recombinant human TSLP-his; assay: as above; remark: listed apart in the source
[12] = molecular target: T2, Recombinant human TSLP-his; assay: as above; remark: listed apart in the source
[13] = molecular target: T2, Recombinant human TSLP-his; assay: as above; remark: listed apart in the source
[14] = molecular target: T3, human TSLP-Fc; assay: competitive ELISA: antibody pre-mixed with biotin-labeled human TSLP-Fc; blocked binding to coated human TSLPR-Fc/IL7Ra-Fc
[15] = molecular target: T3, human TSLP-Fc; assay: as above; remark: listed apart in the source
[16] = molecular target: T3, human TSLP-Fc; assay: as above; remark: listed apart in the source
[17] = molecular target: T3, human TSLP-Fc; assay: cell-based ligand-blocking FACS: antibody pre-mixed with human TSLP-Fc; blocked binding to BAF3-3E6 cells expressing human TSLPR and IL7R
[18] = molecular target: T3, human TSLP-Fc; assay: as above; remark: listed apart in the source
[19] = molecular target: T3, human TSLP-Fc; assay: as above; remark: listed apart in the source
[20] = molecular target: T3, human TSLP-Fc; assay: as above; remark: listed apart in the source
[21] = molecular target: T1, Recombinant cynomolgus monkey TSLP-his; assay: indirect ELISA on coated cynomolgus TSLP-his; the row head of the drawn table reads IC50 although the curve rises (EC50 values were reported)
[22] = molecular target: T1, Recombinant cynomolgus monkey TSLP-his; assay: SPR, Biacore T200; cynomolgus TSLP-his amine-coupled to CM5 chip, antibody as analyte
[23] = molecular target: T1, Recombinant cynomolgus monkey TSLP-his; assay: SPR, Biacore T200; cynomolgus TSLP-his amine-coupled to CM5 chip, antibody as analyte; 1:1 Langmuir fit
[24] = molecular target: T3, human TSLP-Fc; assay: competitive ELISA: antibody pre-mixed with biotin-labeled human TSLP-Fc; blocked binding to coated Tezepelumab; remark: listed apart in the source
[25] = molecular target: T3, human TSLP-Fc; assay: competitive ELISA: antibody pre-mixed with biotin-labeled human TSLP-Fc; blocked binding to coated human TSLPR-Fc/IL7Ra-Fc; remark: listed apart in the source
[26] = molecular target: T3, human TSLP-Fc; assay: cell-based ligand-blocking FACS: antibody pre-mixed with human TSLP-Fc; blocked binding to BAF3-3E6 cells expressing human TSLPR and IL7R; lower plateau at MFI about 550 (partial blocking)
[27] = molecular target: T2, Recombinant human TSLP-his; assay: SPR, Biacore T200; protocol of Example 2

| Binder | Kd [1] | koff [1] | kon [1] | Kd [2] | koff [2] | kon [2] | EC50 [3] | EC50 [4] | Kd [5] | Kd [6] | koff [6] | kon [6] | IC50 [8] | IC50 [9] | EC50 [12] | IC50 [15] | IC50 [16] | IC50 [17] | IC50 [19] | IC50 [20] | also measured |
| --- | --- | --- | --- | --- | --- | --- | --- | --- | --- | --- | --- | --- | --- | --- | --- | --- | --- | --- | --- | --- | --- |
| B1 | < 0.0966 nM | < 1e-05 s⁻¹ | 104000 M⁻¹ s⁻¹ | < 0.0346 nM | < 1e-05 s⁻¹ | 289000 M⁻¹ s⁻¹ | 0.101 nM | 0.202 nM | 0.226 nM | < 0.11 nM | < 1e-05 s⁻¹ | 91100 M⁻¹ s⁻¹ | 0.262 nM | 0.366 nM | 0.146 nM | 0.391 nM | 0.139 nM | 0.514 nM | 1.63 nM | 2.41 nM | koff [5]: 0.000135 s⁻¹; kon [5]: 600000 M⁻¹ s⁻¹; IC50 [7]: 0.15 nM; EC50 [10]: 0.36 nM; EC50 [11]: 0.16 nM; EC50 [13]: 0.151 nM; IC50 [14]: 0.694 nM; IC50 [18]: 0.625 nM; EC50 [21]: 0.407 nM |
| B2 |  |  |  |  |  |  | 4.18 nM |  |  | < 0.0149 nM | < 1e-05 s⁻¹ | 672000 M⁻¹ s⁻¹ | 0.12 nM |  | 0.17 nM | 0.114 nM |  |  | 2.14 nM |  | Kd [22]: 7.23 nM |
| B3 |  |  |  | 0.0672 nM |  |  | 0.127 nM | 0.105 nM |  |  |  |  | 0.495 nM | 0.486 nM |  | 0.506 nM | 0.0777 nM | 0.728 nM | 1.48 nM | 1.45 nM | Kd [23]: 0.0733 nM; IC50 [7]: 0.18 nM; IC50 [24]: 5.79 nM; IC50 [14]: 0.99 nM; IC50 [25]: 6.27 nM; IC50 [18]: 0.759 nM |
| B4 |  |  |  |  |  |  |  |  |  | 0.18 nM | 3.09e-05 s⁻¹ | 172000 M⁻¹ s⁻¹ |  |  | 0.126 nM | 0.5 nM |  |  |  |  | binding result [3]: no binding (tested: about 67 nM); IC50 [26]: 1.83 nM |
| B5 | < 0.0517 nM | < 1e-05 s⁻¹ | 193000 M⁻¹ s⁻¹ | < 0.0261 nM | < 1e-05 s⁻¹ | 383000 M⁻¹ s⁻¹ |  | 0.0918 nM | 0.222 nM |  |  |  |  | 0.291 nM |  |  | 0.1 nM | 0.627 nM |  | ~3.12 nM | Kd [27]: 0.914 nM; koff [27]: 6.36e-05 s⁻¹; kon [27]: 69600 M⁻¹ s⁻¹; koff [5]: 0.000159 s⁻¹; kon [5]: 715000 M⁻¹ s⁻¹; EC50 [10]: 0.448 nM; EC50 [13]: 0.161 nM |
